Test results published in US20260008817A1, “CYCLIC PEPTIDE OR SALT THEREOF, AND USES THEREOF” (FUJIFILM Corporation, priority 2023, published 2026).
Positions of bridges follow the written chain, without caps; N, C: chain ends. No end group written: not given here. COCH2 = acetyl group that carries the bridge

Biological target: T1, Recombinant Human FGFR1 alpha (IIIc) Fc Chimera Protein (Homo sapiens, UniProt P11362)
T1 construct: purchased R&D systems 658-FR-050
Experiment: ELISA binding affinity of enzymatically synthesized peptide to FGFR
Settings: ELISA luminescence signal at 10 nmol/L peptide, SEQ ID NO: 239 standardized to 1; enzyme synthesis product
Method: The binding affinity of the peptide to FGFR was evaluated using an ELISA method.
The peptide used for the evaluation was enzymatically synthesized by the following method.
First, a fusion peptide (SEQ ID NO: 25) in which a translation enhancing sequence (SEQ ID NO: 22), a peptide, a Myc tag (SEQ ID NO: 23), and a HiBiT tag (SEQ ID NO: 24) were linked in this order was designed. Next, a template DNA sequence (SEQ ID NO: 26) was designed in which a T7 promoter sequence, a Shine-Dalgarno sequence, a sequence necessary for transcription and translation initiation, such as a start codon (ATG), was provided on the 5′ terminal side of the DNA sequence encoding the fused peptide, and a stop codon group was provided on the 3′ terminal side thereof. In a case where the triplet TAG codon is included in the template DNA sequence, the above-described codon is assigned to the codon of chloroacetylated lysine, and thus, the peptide encoded by the above-described DNA sequence is a cyclic peptide in which a thiol group of cysteine and a chloroacetyl group of chloroacetylated lysine spontaneously form a thioether bond.
The cell-free enzymatic synthesis of the polypeptide was performed in a translation solution containing a template DNA, PUREfrex 2.0 (GeneFrontier, PF201-0.25-5), and Aminoacyl tRNA (1). 1.75 μL ([…]) of the template DNA prepared to 50 ng/μL, 2.5 μL of PUREfrex 2.0 Solution I, 0.25 μL of Solution II, 0.5 μL of Solution III, and a dried product of Aminoacyl tRNA (1) (final concentration: 0.5 ng/μL) were mixed and mixture was subjected to a reaction at 37° C. for 1 hour.
The concentration of the enzymatically synthesized peptide was measured using the peptide diluted with Can Get Signal Immunoreaction Enhancer Solution I (TOYOBO, NKB-101), Nano-Glo HiBiT Lytic Detection System (Promega, N3040), and a chemical synthetic peptide for a calibration curve having a known concentration (SEQ ID NO: 33) according to the standard protocol of the Nano-Glo HiBiT Lytic Detection System.
The binding affinity of the enzymatically synthesized peptide to FGFR was measured by evaluating the amount of the peptide bound to FGFR by ELISA.
First, 5 ng of Recombinant Human FGFR1 alpha (IIIc) Fc Chimera Protein (R&D systems, 658-FR-050) was immobilized in each well of a 96-well plate, and blocked with Pierce Protein-Free (PBS) Blocking Buffer (Thermo, 37572), and a peptide diluted with Can Get Signal Immunoreaction Enhancer Solution I (TOYOBO, NKB-101) was then added and reacted at room temperature for 3 hours. After washing with 0.05% Tween 20-containing phosphate buffered saline (PBS), an anti-Myc antibody (Cell Signaling, 14038S) diluted with Can Get Signal Immunoreaction Enhancer Solution II (TOYOBO, NKB-101) was added and reacted at room temperature for 2 hours. After washing with 0.05% Tween 20-containing PBS, SuperSignal ELISA Femto Substrate (Thermo, 37075) was added, and the luminescence amount was measured. The dose-response relationship was calculated from using the difference between the luminescence amount in the well in which FGFR was immobilized and the luminescence amount in the well in which FGFR was not immobilized, and the concentration of the peptide at the time of reaction, and the binding affinity to FGFR was evaluated according to the following evaluation criteria. The evaluation result preferably satisfies the evaluation criteria A, B, or C.
In a case where a value of a luminescence signal emitted by the cyclic peptide set forth in SEQ ID NO: 239 at a reaction concentration of 10 nmol/L is standardized to 1, evaluation criteria of the luminescence signal value emitted by the peptide at a reaction concentration of 10 nmol/L is as follows. • A: 0.7 or more • B: 0.5 or more and less than 0.7 • C: 0.1 or more and less than 0.5 • D: less than 0.1.

T1 sequence (P11362 with tags, fused parts or gaps limits assumed): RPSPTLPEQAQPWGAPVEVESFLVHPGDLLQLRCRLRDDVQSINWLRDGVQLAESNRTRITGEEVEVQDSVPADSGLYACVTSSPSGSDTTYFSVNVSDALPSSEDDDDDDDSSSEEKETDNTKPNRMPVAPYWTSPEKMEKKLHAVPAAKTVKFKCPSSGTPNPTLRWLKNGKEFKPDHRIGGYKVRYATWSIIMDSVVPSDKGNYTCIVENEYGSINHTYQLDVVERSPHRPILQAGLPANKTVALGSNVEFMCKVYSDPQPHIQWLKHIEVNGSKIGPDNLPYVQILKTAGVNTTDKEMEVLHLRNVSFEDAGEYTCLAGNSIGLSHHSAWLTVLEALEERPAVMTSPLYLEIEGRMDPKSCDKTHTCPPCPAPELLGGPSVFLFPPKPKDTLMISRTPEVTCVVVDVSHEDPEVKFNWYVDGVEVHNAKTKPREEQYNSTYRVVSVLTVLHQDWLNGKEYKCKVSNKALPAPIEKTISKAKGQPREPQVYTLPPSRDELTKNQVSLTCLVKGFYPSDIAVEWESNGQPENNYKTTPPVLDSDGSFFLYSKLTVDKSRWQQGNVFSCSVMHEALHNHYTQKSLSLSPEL

| Substance | Evaluation result of binding affinity to FGFR |
| --- | --- |
| 230 (ICVYTFDAHAHSLHAALTK(COCH2)W; thioether 2-19 (inferred)) [compound 230] | A (0.7 or more) |
| 211 (ICVYTFDAHAHSLHAAVTK(COCH2)I; thioether 2-19 (inferred)) [compound 211] | C (0.1 or more and less than 0.5) |
| 141 (ICVYTFDAHAQSLHAALTK(COCH2)I; thioether 2-19 (inferred)) [compound 141] | A (0.7 or more) |
| 63 (ICVHTFDAHAHSLHAALTK(COCH2)I; thioether 2-19 (inferred)) [compound 63] | A (0.7 or more) |
| 282 (FCIYSWNWNNLVRPEFRK(COCH2)V; thioether 2-18 (inferred)) [compound 282] | C (0.1 or more and less than 0.5) |
| 253 (TCFSPGQIWIWTHLVTAIRNK(COCH2)T; thioether 2-21 (inferred)) [compound 253] | B (0.5 or more and less than 0.7) |
| 301 (ICVYTFDAHAHSLHDALNK(COCH2)Q; thioether 2-19 (inferred)) [compound 301] | A (0.7 or more) |
| 157 (ICVYTFDAHAHTLHAALTK(COCH2)I; thioether 2-19 (inferred)) [compound 157] | A (0.7 or more) |
| 108 (ICVYTFDAFAHSLHAALTKI; Description of Artificial Sequence: Cyclic peptide) [compound 108] | B (0.5 or more and less than 0.7) |
| 165 (ICVYTFDAHAHSIHAALTK(COCH2)I; thioether 2-19 (inferred)) [compound 165] | A (0.7 or more) |
| 198 (ICVYTFDAHAHSLHWALTK(COCH2)I; thioether 2-19 (inferred)) [compound 198] | C (0.1 or more and less than 0.5) |
| 57 (ICIYTFDAHAHSLHAALTK(COCH2)I; thioether 2-19 (inferred)) [compound 57] | A (0.7 or more) |
| 160 (ICVYTFDAHAHRLHAALTK(COCH2)I; thioether 2-19 (inferred)) [compound 160] | C (0.1 or more and less than 0.5) |
| 189 (ICVYTFDAHAHSLDAALTK(COCH2)I; thioether 2-19 (inferred)) [compound 189] | A (0.7 or more) |
| 101 (ICVYTFDRHAHSLHAALTKI; Description of Artificial Sequence: Cyclic peptide) [compound 101] | A (0.7 or more) |
| 299 (ICVYTFDAHAHSLHDALTK(COCH2)Q; thioether 2-19 (inferred)) [compound 299] | A (0.7 or more) |
| 174 (ICVYTFDAHAHSRHAALTK(COCH2)I; thioether 2-19 (inferred)) [compound 174] | C (0.1 or more and less than 0.5) |
| 308 (FCVYTFDAHAHSLHDALTK(COCH2)I; thioether 2-19 (inferred)) [compound 308] | A (0.7 or more) |
| 181 (ICVYTFDAHAHSLVAALTK(COCH2)I; thioether 2-19 (inferred)) [compound 181] | B (0.5 or more and less than 0.7) |
| 221 (ICVYTFDAHAHSLHAALSK(COCH2)I; thioether 2-19 (inferred)) [compound 221] | C (0.1 or more and less than 0.5) |
| 285 (QCSWWYVQVWTYPFHVLK(COCH2)G; thioether 2-18 (inferred)) [compound 285] | C (0.1 or more and less than 0.5) |
| 109 (ICVYTFDAYAHSLHAALTKI; Description of Artificial Sequence: Cyclic peptide) [compound 109] | B (0.5 or more and less than 0.7) |
| 168 (ICVYTFDAHAHSYHAALTK(COCH2)I; thioether 2-19 (inferred)) [compound 168] | A (0.7 or more) |
| 144 (ICVYTFDAHADSLHAALTK(COCH2)I; thioether 2-19 (inferred)) [compound 144] | A (0.7 or more) |
| 58 (ICFYTFDAHAHSLHAALTK(COCH2)I; thioether 2-19 (inferred)) [compound 58] | C (0.1 or more and less than 0.5) |
| 201 (ICVYTFDAHAHSLHSALTK(COCH2)I; thioether 2-19 (inferred)) [compound 201] | A (0.7 or more) |
| 258 (VCVRPIFIFSFRAPFNAVDWK(COCH2)N; thioether 2-21 (inferred)) [compound 258] | A (0.7 or more) |
| 188 (ICVYTFDAHAHSLTAALTK(COCH2)I; thioether 2-19 (inferred)) [compound 188] | A (0.7 or more) |
| 64 (ICVYAFDAHAHSLHAALTK(COCH2)I; thioether 2-19 (inferred)) [compound 64] | B (0.5 or more and less than 0.7) |

The remaining lines, values ahead:

| Evaluation result of binding affinity to FGFR | Substance |
| --- | --- |
| A (0.7 or more) | 199 (ICVYTFDAHAHSLHNALTK(COCH2)I; thioether 2-19 (inferred)) [compound 199] |
| C (0.1 or more and less than 0.5) | 126 (ICVYTFDAHTHSLHAALTKI; Description of Artificial Sequence: Cyclic peptide) [compound 126] |
| A (0.7 or more) | 237 (VCIYTFNHLAQTYWQSLNK(COCH2)V; thioether 2-19 (inferred)) [compound 237] |
| C (0.1 or more and less than 0.5) | 74 (ICVYTADAHAHSLHAALTK(COCH2)I; thioether 2-19 (inferred)) [compound 74] |
| A (0.7 or more) | 204 (ICVYTFDAHAHSLHEALTK(COCH2)I; thioether 2-19 (inferred)) [compound 204] |
| C (0.1 or more and less than 0.5) | 71 (ICVYEFDAHAHSLHAALTK(COCH2)I; thioether 2-19 (inferred)) [compound 71] |
| B (0.5 or more and less than 0.7) | 90 (ICVYTFDPHAHSLHAALTK(COCH2)I; thioether 2-19 (inferred)) [compound 90] |
| A (0.7 or more) | 321 (FCVYTFDAHAHSLDDALNK(COCH2)Q; thioether 2-19 (inferred)) [compound 321] |
| A (0.7 or more) | 274 (FCIYTFSRESGLLWKQ; Description of Artificial Sequence: Cyclic peptide) [compound 274] |
| A (0.7 or more) | 44 (FCVYTFDAHAHSLHAALTK(COCH2)I; thioether 2-19 (inferred)) [compound 44] |
| C (0.1 or more and less than 0.5) | 288 (LCHLVFQFNPDTGKLWPK(COCH2)Y; thioether 2-18 (inferred)) [compound 288] |
| C (0.1 or more and less than 0.5) | 255 (FCTLWQFGNLVWTHESPFIK(COCH2)Q; thioether 2-20 (inferred)) [compound 255] |
| C (0.1 or more and less than 0.5) | 85 (ICVYTFYAHAHSLHAALTK(COCH2)I; thioether 2-19 (inferred)) [compound 85] |
